Measurements taken from US10117953B2, “Antibody drug conjugates” (Novartis AG, priority 2013, dated 2018).

Assays:
[1] = tested on: Mo7e cells; test: Mo7e proliferation assay with GM-CSF (SCF-independent); assay type: cell-based, human; conditions: 10 ng/ml GM-CSF, 5 days
Experimental: To evaluate the potential antagonistic properties of the naked antibodies and the ability of the antibody drug conjugates (ADCs) to inhibit the proliferation of a cKIT-expressing cell line, MO7e (DSMZ, Catalog # ACC-104, Braunschweig, Del.) were grown in the presence or absence of cKIT ligand, Stem Cell Factor (SCF), for survival. MO7e cells were grown in either 10 ng/ml human granulocyte-macrophage colony-stimulating factor GM-CSF (R&D Systems Cat#215-GM, Minneapolis, Minn.) or 10 ng/ml human Stem Cell Factor SCF (R&D Systems Cat#255-SC) prior to seeding in 96 well plates (Costar Cat #3904, Corning, Tewksbury, Mass.) at 5000 cells/well in 100 μl dilution medium. A duplicate plate was generated for a day 0 measurement and all plates were incubated in a tissue culture incubator at 37° C. with 5% CO2 overnight. […] Assay plates were shaken gently for 20 min and the resulting luminescence intensity was measured using a Perkin Elmer 1450 Microbeta TriLux® plate reader (Perkin Elmer, Waltham, Mass.). […] Following this incubation period, relative cell viability was determined via the addition of Cell titer Glo reagent as described above. The effect of the ADCs on cell proliferation was calculated using the average of the duplicates as follows: (% Inhibition=(ADC or Ab treated)/(untreated)*100) The % inhibition data was fitted to a 4-parameter logistic equation and IC50 values were determined.

[2] = tested on: Uke-1 cells; test: ADCC activity in vitro (Calcein release, NK3.3 effector cells); assay type: cell-based, human; conditions: effector to target ratio 20 to 1
Experimental: In brief, Uke-1 cells were stained with Calcein acetoxy-methyl ester (Calcein-AM; Sigma-Aldrich catalog #17783-5MG, St. Louis, Mo.), washed twice, pipetted into a 96-well microtiterplate (96 well, U-bottomed, clear plastic; Corning Costar, catalog #650 160, Tewksbury, Mass.) at a concentration of 5000 cells per well and pre-incubated for 10 min with a serial dilution of the above mentioned antibodies and proteins (from 50,000 to 0.003 μg per ml) before adding the effector NK3.3 cells for 1 hour in an effector to target ratio of 20 to 1. In order to calculate the antibody specific lysis of the target cells, a parallel incubation of target cells only without antibody or effector cells served as a baseline and negative control, whereas the positive control or maximal lysis or hundred percent specific lysis was determined by lysis of target cells only with a 1% Triton-X 100 solution. […] Following a co-incubation of target and effector cells, the microtiterplate was centrifuged and an aliquot of the supernatant fluid was transferred to another microtiterplate (96 well, flat-bottomed, black with clear bottom; Corning Costar, catalog #3904, Tewksbury, Mass.) and the concentration of free Calcein in solution was determined with a fluorescence counter (Victor 3® multilabel counter, Perkin Elmer, Waltham, Mass.).

B1: NEG085: anti-cKIT antibody of Table 1; VH SEQ ID NO 82, VL SEQ ID NO 91; derived from 9P3 (antibody, V domains shown)
VH: EVQLVESGGGLVQPGGSLRLSCAASGFAFSGYYMAWVRQAPGKGLEWVANINYPGSSTYYLDSVKGRFTISRDNAKNSLYLQMNSLRAEDTAVYYCARGDYYGTTYWYFDVWGQGTTVTVSS
VL: DIQMTQSPSSLSASVGDRVTITCRASQSISSYLNWYQQKPGKAPKLLIYYTSRLQSGVPSRFSGSGSGTDFTLTISSLQPEDFATYYCQQGRRLWSFGGGTKVEIK
B1 was tested, and the “effect on cell proliferation” value [1] was “no detrimental effect on cell proliferation” and the ADCC [2] was “not able to induce ADCC even at higher concentrations”.
